Results reported in patent US20170101470A1 (PROTHENA BIOSCIENCES, published 2017).

How the values were obtained:
[1] = molecular target: T1, human MCAM V241A mutant clone on BHK-S cells (human) (UniProt P43121); test: shotgun mutagenesis, immunodetection on BHK-S cells, 0.25 ug/mL, background-subtracted and normalised to WT, triplicate
T1 sequence: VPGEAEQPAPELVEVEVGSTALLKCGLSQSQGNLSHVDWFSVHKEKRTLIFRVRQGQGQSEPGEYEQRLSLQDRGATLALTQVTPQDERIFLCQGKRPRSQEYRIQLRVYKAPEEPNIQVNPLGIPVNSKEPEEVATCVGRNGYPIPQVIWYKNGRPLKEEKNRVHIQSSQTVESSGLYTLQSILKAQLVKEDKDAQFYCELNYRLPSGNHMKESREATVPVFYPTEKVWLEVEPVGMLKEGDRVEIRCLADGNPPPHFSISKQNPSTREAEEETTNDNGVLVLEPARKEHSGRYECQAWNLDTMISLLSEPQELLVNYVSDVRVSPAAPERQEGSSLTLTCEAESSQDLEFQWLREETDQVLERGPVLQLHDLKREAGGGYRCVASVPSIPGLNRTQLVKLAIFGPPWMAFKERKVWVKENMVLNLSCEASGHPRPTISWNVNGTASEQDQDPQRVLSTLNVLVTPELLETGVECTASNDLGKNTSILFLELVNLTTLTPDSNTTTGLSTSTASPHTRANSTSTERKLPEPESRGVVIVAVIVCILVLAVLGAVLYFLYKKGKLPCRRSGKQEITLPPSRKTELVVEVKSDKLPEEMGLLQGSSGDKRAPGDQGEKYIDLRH

[2] = molecular target: T2, human MCAM S206A mutant clone on BHK-S cells (human) (UniProt P43121); test: as above
T2 sequence: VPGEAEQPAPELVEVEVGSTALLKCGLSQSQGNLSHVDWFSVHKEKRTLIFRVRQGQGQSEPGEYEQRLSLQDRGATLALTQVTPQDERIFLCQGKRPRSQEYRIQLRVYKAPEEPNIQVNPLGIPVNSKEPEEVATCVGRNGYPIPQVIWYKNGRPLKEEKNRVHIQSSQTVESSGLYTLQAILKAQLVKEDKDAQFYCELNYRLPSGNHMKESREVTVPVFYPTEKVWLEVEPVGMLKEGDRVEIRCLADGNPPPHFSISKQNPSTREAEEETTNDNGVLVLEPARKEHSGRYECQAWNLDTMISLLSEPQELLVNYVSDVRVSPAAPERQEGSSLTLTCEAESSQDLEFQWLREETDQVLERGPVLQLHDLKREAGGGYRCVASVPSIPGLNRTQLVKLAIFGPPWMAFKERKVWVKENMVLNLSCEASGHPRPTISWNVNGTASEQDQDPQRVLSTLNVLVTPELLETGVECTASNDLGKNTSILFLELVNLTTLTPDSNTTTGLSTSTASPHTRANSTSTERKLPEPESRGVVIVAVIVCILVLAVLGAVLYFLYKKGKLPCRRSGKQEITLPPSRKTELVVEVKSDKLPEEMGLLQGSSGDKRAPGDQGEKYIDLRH

[3] = molecular target: T3, human MCAM I207A mutant clone on BHK-S cells (human) (UniProt P43121); test: as above
T3 sequence: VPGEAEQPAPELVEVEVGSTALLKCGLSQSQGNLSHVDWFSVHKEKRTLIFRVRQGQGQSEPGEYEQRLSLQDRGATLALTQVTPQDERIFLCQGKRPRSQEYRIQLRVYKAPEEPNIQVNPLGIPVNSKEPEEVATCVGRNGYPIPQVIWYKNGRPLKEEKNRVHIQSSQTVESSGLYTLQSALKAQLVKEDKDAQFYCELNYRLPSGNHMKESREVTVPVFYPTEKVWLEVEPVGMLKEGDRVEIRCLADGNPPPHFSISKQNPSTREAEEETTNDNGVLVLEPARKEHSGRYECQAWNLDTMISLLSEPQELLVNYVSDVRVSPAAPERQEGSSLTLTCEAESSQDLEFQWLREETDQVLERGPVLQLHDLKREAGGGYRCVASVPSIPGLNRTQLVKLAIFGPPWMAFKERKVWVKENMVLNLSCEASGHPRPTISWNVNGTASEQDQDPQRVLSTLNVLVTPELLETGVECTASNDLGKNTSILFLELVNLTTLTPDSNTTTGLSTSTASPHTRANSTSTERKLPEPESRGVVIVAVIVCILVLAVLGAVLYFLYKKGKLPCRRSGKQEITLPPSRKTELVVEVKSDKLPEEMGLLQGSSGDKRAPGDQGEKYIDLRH

[4] = molecular target: T4, human MCAM domain 1 hFc construct (human, UniProt P43121 19-129); test: ForteBio Octet Red, MCAMhFc domains on anti-human IgG Fc sensors
T4 construct: One of the 'various MCAMhFc domains' loaded on the ForteBio sensors; also called MCAMhFc domain 1
T4 sequence: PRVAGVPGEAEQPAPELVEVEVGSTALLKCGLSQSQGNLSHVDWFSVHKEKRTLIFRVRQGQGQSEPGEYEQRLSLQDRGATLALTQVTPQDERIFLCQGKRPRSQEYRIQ
Excerpt: The following protocol was used: ForteBio anti-human IgG Fc biosensors were used to immobilize various MCAMhFc domains including full length MCAMhFc protein on to biosensor surface. […] After loading these samples into a black 96 well plate, the Octet Red was programmed as follows: 60 seconds for baseline #1; 180 seconds for loading various domains; 60 seconds for baseline #2; 180 seconds for association of antibody to domain; and 240 seconds for dissociation of antibody from domain.
Reagents and Supplies Used: [0358] 1. MCAMhFc final concentration @ 5 ug/ml [0359] […] 3. ForteBio anti-human IgG Fc Capture (AHC) biosensors for kinetics experiments, cat#18-5060 [0361] 4. Block 96 well plate from Greiner Bio-one, cat#655209 [0362] 5. ForteBio Octet Red machine [0363] 6. Fresh tissue culture medium, DMEM with 20% FCS, was used as buffer for dilution

B1: rat anti-human MCAM monoclonal antibody clone 2120.4.19 (antibody, V domains shown)
VH: QVQLKESGPGLVQPSQTLSLTCTVSGFSLTSNGVSWVRQPPGKGLEWIAAISSGGTTYYNSAFKSRLSISRNTSKSQVLLKMNSLQTEDTAMYFCARRYGYGWYFDFWGPGTMVTVSS
VL: DIRMTQSPSLLSASVGDRVTLNCKASQNIYNSLAWYQQKLGEGPKVLIPNANSLQTGIPSRFSGSGSGTDFTLTISSLQPEDFATYFCQQFYSGYTFGAGTKLELK
notes: also called m2120
mean reactivity (% of wild type MCAM) [1]: 24.4 % WT
mean reactivity (% of wild type MCAM) [2]: 17.9 % WT
mean reactivity (% of wild type MCAM) [3]: 23.6 % WT
binding result [4]: no binding (tested: 5 ug/ml)
